The results in this text go back to PMC8154130.

Usually Kd stands for a measure of binding affinity in units of concentration.

Where two headings read alike, the source gives them in different places.

Common to all, as to assay: EMSA
The target of series [1] is T1, C-terminal truncated DDX3X (1-582) (Homo sapiens, UniProt O00571).
The target of series [2] is T1, C-terminal truncated DDX3X (1-582). The source holds these as a separate data set.
For series [3] the target is unchanged. This is another data set of the same source.
For series [4] the target is unchanged. The source holds these as a separate data set.
The target is the same in series [5]. The source holds these as a separate data set.

B1: D:E (dsRNA)
RNA 1: CUCAACUCAACCCUUCAUCUCAACUCAACCCUUCAU
RNA 2: AUGAAGGGUUGAGUUGAGAUGAAGGGUUGAGUUGAG
In the case of B1, the binding result in series [1] is “no binding”.

B2: A:A (dsRNA)
RNA 1: GGCGGCCGCC
RNA 2: GGCGGCCGCC
In the case of B2, the binding result in series [1] is reported as “no binding”.

B3: B:B (dsRNA)
RNA 1: UUUUUUUUUUUUUUUUUUUUGGCGGCCGCC
RNA 2: UUUUUUUUUUUUUUUUUUUUGGCGGCCGCC
For B3, the Kd in series [2] is 285 ± 18 nM; in series [3] it was 114 ± 10 nM.

For the molecule UUUUUUUUUUUUUUUUUUUUGGUGGUUGUG (ssRNA) [C], the Kd in series [4] worked out at 217 ± 60 nM; in series [5], 298 ± 31 nM.
